How the values were obtained:
[1] = test system: H9P55 cells; test: Definitive endoderm on human fibronectin or […] (FACS, real-time PCR); format: cell-based; conditions: fibronectin vs MATRIGEL coated plates
Protocol: H9P55 cells were grown and differentiated on human fibronectin or regular growth factor […]™ (BD Biosciences). 1 ml of DMEM/F12 (Invitrogen/GIBCO) containing 1 ug/ml of human fibronectin (R&D systems, MN) was added to each well of 6 well tissue culture treated dish. Alternatively, regular growth factor […]™ was diluted 1:10 in DMEM/F12 and 1 ml of diluted […]™ was added to each well of 6 well tissue culture treated dish. Cells were passed with collagenase. […] Real-time PCR results (FIG. 39) confirm that formation of definitive endoderm was equivalent on fibronectin and […]™ coated plates.

[2] = test system: H1P55 ES cells; test: Definitive endoderm on […]: role of Wnt1 (real-time PCR); format: cell-based, human; conditions: 20 ng/ml Wnt1 in the presence of 100 ng/ml AA
Protocol: The following combinations of WNT1+AA were tested:
a) 20 ng/ml of WNT1+100 ng/ml AA in 0.5% FBS+DM-F12 for days 1-2 followed by 2% FBS+DM-F12+100 ng/ml AA for day three, b) 20 ng/ml of WNT1+100 ng/ml AA in 0.5% FBS+DM-F12 for days 1-2 followed by 2% FBS+DM-F12+100 ng/ml AA for days 3-5, c) 10 ng/ml of WNT1+100 ng/ml AA in 0.5% FBS+DM-F12 for days 1-2 followed by 2% FBS+DMF12+100 ng/ml AA for day three, d) 10 ng/ml of WNT1+100 ng/ml AA in 0.5% FBS+DM-F12 for days 1-2 followed by 2% FBS+DM-F12+100 ng/ml AA for days 3-5, e) 20 ng/ml of WNT1+100 ng/ml AA in 0.5% FBS+DM-F12 for days 1-2 followed by 2% FBS+DM-F12+100 ng/ml AA+20 ng/ml of WNT1 for day three, f) 20 ng/ml of WNT1+100 ng/ml AA in 0.5% FBS+DM-F12 for days 1-2 followed by 2% FBS+DM-F12+100 ng/ml AA+20 ng/ml of WNT1 for days 3-5.

[3] = test system: H9P53 embryonic stem cells; test: Definitive endoderm on […]: combination of Wnt-3a, GSK-3B inhibitor, BMP-4; format: cell-based, human; conditions: 25 ng/ml BMP-4 added to the DE protocol
Text: Results are expressed as fold increase over untreated cells. […] Results are expressed as fold increase over untreated cells.

[4] = test system: H9 cells; test: Definitive endoderm after treatment with Wnt inhibitor DKK-1 (real-time PCR); format: cell-based, human; conditions: 100 ng/ml DKK1 with 20 ng/ml Wnt3a and 100 ng/ml activin A
Protocol: To determine if the addition of Wnt-3a was causing the increase in differentiation, an inhibitor of Wnt-3 signaling was added to the cultures. […] H9 cells were cultured on plates coated with Growth Factor Reduced […] at a 1:30 dilution. The plates were coated with […] for 1 hr at room temperature.
At day 5, the cultures were analyzed by real time PCR for SOX-17, SOX-7, Alpha-fetal protein (AFP), CXCR4, Brychyury (Bry), gooscecoid (GSC), HNF-3 beta, GATA4, hTERT and Oct4. AFP and SOX-7 are regarded as visceral endoderm markers while GATA4, HNF-3beta and SOX-17 represent definite endoderm markers and GSC, Bry, and CXCR4 represent markers of primitive streak. hTERT and Oct-4 are markers for self renewal and pluripotency respectively.

fibronectin
formation of definitive endoderm (real-time PCR) [1]: equivalent

B1: Wnt1: WNT-1 (PeproTech, NJ, Catalogue#120-17) (protein, UniProt P04628 28-370, looked up)
Proto-oncogene Wnt-1: ANSSGRWWGIVNVASSTNLLTDSKSLQLVLEPSLQLLSRKQRRLIRQNPGILHSVSGGLQSAVRECKWQFRNRRWNCPTAPGPHLFGKIVNRGCRETAFIFAITSAGVTHSVARSCSEGSIESCTCDYRRRGPGGPDWHWGGCSDNIDFGRLFGREFVDSGEKGRDLRFLMNLHNNEAGRTTVFSEMRQECKCHGMSGSCTVRTCWMRLPTLRAVGDVLRDRFDGASRVLYGNRGSNRASRAELLRLEPEDPAHKPPSPHDLVYFEKSPNFCTYSGRLGTAGTAGRACNSSSPALDGCELLCCGRGHRTRTQRVTERCNCTFHWCCHVSCRNCTHTRVLHECL
definitive endoderm markers (Bry, CXCR4, GSC, SOX17, HNF-3B, and GATA-4) [2]: significant up regulation

B2: BMP-4: BMP-4 (Catalog#314-BP-010, R&D Systems, MN) (protein, UniProt P12644 293-408, looked up)
Bone morphogenetic protein 4: SPKHHSQRARKKNKNCRRHSLYVDFSDVGWNDWIVAPPGYQAFYCHGDCPFPLADHLNSTNHAIVQTLVNSVNSSIPKACCVPTELSAISMLYLDEYDKVVLKNYQEMVVEGCGCR
mesoderm marker BRY [3]: induce formation of mesoderm marker BRY

B3: DKK1: Wnt Inhibitor DKK-1 (Dikkopf-1) (protein, UniProt O94907 32-266, looked up)
Dickkopf-related protein 1: TLNSVLNSNAIKNLPPPLGGAAGHPGSAVSAAPGILYPGGNKYQTIDNYQPYPCAEDEECGTDEYCASPTRGGDAGVQICLACRKRRKRCMRHAMCCPGNYCKNGICVSSDQNHFRGEIEETITESFGNDHSTLDGYSRRTTLSSKMYHTKGQEGSVCLRSSDCASGLCCARHFWSKICKPVLKEGQVCTKHRRKGSHGLEIFQRCYCGEGLSCRIQKDHHQASNSSRLHTCQRH
expression level of differentiation markers (CXCR4, GATA4, HNF-3beta, SOX17, goosecoid) [4]: dramatically decrease to levels similar to that of untreated cells

From US9096832B2, “Differentiation of human embryonic stem cells” (LifeScan, Inc., priority 2007, dated 2015)
